The supplement of paper PMC11136658

Tested on: peptide library, one residue held at a place counted from the Y acceptor
Assay: relative phosphorylation of the sub-library (ratio to the mean residue at this position); higher = residue favoured
Outline: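 Peptide library mixtures, biotinylated and centred on Tyr, each fixed one residue at one position from −5 to +5. Purified recombinant kinases were incubated with them for 90 min in 384-well plates alongside 50 μM ATP and γ-32P-ATP, and the captured, rinsed peptides on streptavidin membranes were measured by phosphorimaging and ImageQuant. Normalization divided each position's intensities by the sum of its 18 randomized residues (16 for the Ser/Thr-free library) and multiplied by that number, so that values give phosphorylation relative to the mean randomized residue.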

## SYK, construct: Full length, human (from UniProt P43405)
A fixed, at +1
  relative phosphorylation: 0.893
A fixed, at +2
  relative phosphorylation: 0.772
A fixed, at +3
  relative phosphorylation: 0.955
A fixed, at +4
  relative phosphorylation: 0.937
A fixed, at +5
  relative phosphorylation: 0.988
A fixed, at -1
  relative phosphorylation: 0.68
A fixed, at -2
  relative phosphorylation: 0.908
A fixed, at -3
  relative phosphorylation: 0.734
A fixed, at -4
  relative phosphorylation: 1.07
A fixed, at -5
  relative phosphorylation: 0.954
D fixed, at +1
  relative phosphorylation: 1.01
D fixed, at +2
  relative phosphorylation: 1.13
D fixed, at +3
  relative phosphorylation: 0.812
D fixed, at +4
  relative phosphorylation: 1.23
D fixed, at +5
  relative phosphorylation: 1.14
D fixed, at -1
  relative phosphorylation: 4.23
D fixed, at -2
  relative phosphorylation: 2.04
D fixed, at -3
  relative phosphorylation: 2.29
D fixed, at -4
  relative phosphorylation: 1.89
D fixed, at -5
  relative phosphorylation: 1.54
E fixed, at +1
  relative phosphorylation: 4.05
E fixed, at +2
  relative phosphorylation: 1.74
E fixed, at +3
  relative phosphorylation: 0.941
E fixed, at +4
  relative phosphorylation: 1.39
E fixed, at +5
  relative phosphorylation: 1.2
E fixed, at -1
  relative phosphorylation: 3.04
E fixed, at -2
  relative phosphorylation: 2.21
E fixed, at -3
  relative phosphorylation: 2.61
E fixed, at -4
  relative phosphorylation: 1.96
E fixed, at -5
  relative phosphorylation: 1.49
F fixed, at +1
  relative phosphorylation: 0.838
F fixed, at +2
  relative phosphorylation: 1.27
F fixed, at +3
  relative phosphorylation: 1.12
F fixed, at +4
  relative phosphorylation: 1.09
F fixed, at +5
  relative phosphorylation: 1
F fixed, at -1
  relative phosphorylation: 0.665
F fixed, at -2
  relative phosphorylation: 0.675
F fixed, at -3
  relative phosphorylation: 0.914
F fixed, at -4
  relative phosphorylation: 1.07
F fixed, at -5
  relative phosphorylation: 1.02
G fixed, at +1
  relative phosphorylation: 0.363
G fixed, at +2
  relative phosphorylation: 0.78
G fixed, at +3
  relative phosphorylation: 1.2
G fixed, at +4
  relative phosphorylation: 0.965
G fixed, at +5
  relative phosphorylation: 0.96
G fixed, at -1
  relative phosphorylation: 0.379
G fixed, at -2
  relative phosphorylation: 1.04
G fixed, at -3
  relative phosphorylation: 0.896
G fixed, at -4
  relative phosphorylation: 0.964
G fixed, at -5
  relative phosphorylation: 1.03
H fixed, at +1
  relative phosphorylation: 0.665
H fixed, at +2
  relative phosphorylation: 0.752
H fixed, at +3
  relative phosphorylation: 0.813
H fixed, at +4
  relative phosphorylation: 0.988
H fixed, at +5
  relative phosphorylation: 0.919
H fixed, at -1
  relative phosphorylation: 0.673
H fixed, at -2
  relative phosphorylation: 0.863
H fixed, at -3
  relative phosphorylation: 0.873
H fixed, at -4
  relative phosphorylation: 0.769
H fixed, at -5
  relative phosphorylation: 0.933
I fixed, at +1
  relative phosphorylation: 1.22
I fixed, at +2
  relative phosphorylation: 1.02
I fixed, at +3
  relative phosphorylation: 1.51
I fixed, at +4
  relative phosphorylation: 0.751
I fixed, at +5
  relative phosphorylation: 0.826
I fixed, at -1
  relative phosphorylation: 1.17
I fixed, at -2
  relative phosphorylation: 0.766
I fixed, at -3
  relative phosphorylation: 0.689
I fixed, at -4
  relative phosphorylation: 0.773
I fixed, at -5
  relative phosphorylation: 0.949
K fixed, at +1
  relative phosphorylation: 0.25
K fixed, at +2
  relative phosphorylation: 0.588
K fixed, at +3
  relative phosphorylation: 0.584
K fixed, at +4
  relative phosphorylation: 0.875
K fixed, at +5
  relative phosphorylation: 0.916
K fixed, at -1
  relative phosphorylation: 0.204
K fixed, at -2
  relative phosphorylation: 0.46
K fixed, at -3
  relative phosphorylation: 0.459
K fixed, at -4
  relative phosphorylation: 0.593
K fixed, at -5
  relative phosphorylation: 0.681
L fixed, at +1
  relative phosphorylation: 0.86
L fixed, at +2
  relative phosphorylation: 0.929
L fixed, at +3
  relative phosphorylation: 1.02
L fixed, at +4
  relative phosphorylation: 0.802
L fixed, at +5
  relative phosphorylation: 0.966
L fixed, at -1
  relative phosphorylation: 0.912
L fixed, at -2
  relative phosphorylation: 0.837
L fixed, at -3
  relative phosphorylation: 0.805
L fixed, at -4
  relative phosphorylation: 0.99
L fixed, at -5
  relative phosphorylation: 1.04
M fixed, at +1
  relative phosphorylation: 0.907
M fixed, at +2
  relative phosphorylation: 0.965
M fixed, at +3
  relative phosphorylation: 0.924
M fixed, at +4
  relative phosphorylation: 1.1
M fixed, at +5
  relative phosphorylation: 0.944
M fixed, at -1
  relative phosphorylation: 0.725
M fixed, at -2
  relative phosphorylation: 0.728
M fixed, at -3
  relative phosphorylation: 0.758
M fixed, at -4
  relative phosphorylation: 0.818
M fixed, at -5
  relative phosphorylation: 0.944
N fixed, at +1
  relative phosphorylation: 0.505
N fixed, at +2
  relative phosphorylation: 1.11
N fixed, at +3
  relative phosphorylation: 0.771
N fixed, at +4
  relative phosphorylation: 0.896
N fixed, at +5
  relative phosphorylation: 1.03
N fixed, at -1
  relative phosphorylation: 1.02
N fixed, at -2
  relative phosphorylation: 1.21
N fixed, at -3
  relative phosphorylation: 1.26
N fixed, at -4
  relative phosphorylation: 0.868
N fixed, at -5
  relative phosphorylation: 1.13
P fixed, at +1
  relative phosphorylation: 0.288
P fixed, at +2
  relative phosphorylation: 0.669
P fixed, at +3
  relative phosphorylation: 1.67
P fixed, at +4
  relative phosphorylation: 1.08
P fixed, at +5
  relative phosphorylation: 1.27
P fixed, at -1
  relative phosphorylation: 0.672
P fixed, at -2
  relative phosphorylation: 1.03
P fixed, at -3
  relative phosphorylation: 0.868
P fixed, at -4
  relative phosphorylation: 1.08
P fixed, at -5
  relative phosphorylation: 0.966
Q fixed, at +1
  relative phosphorylation: 1.1
Q fixed, at +2
  relative phosphorylation: 0.972
Q fixed, at +3
  relative phosphorylation: 0.761
Q fixed, at +4
  relative phosphorylation: 1.11
Q fixed, at +5
  relative phosphorylation: 0.983
Q fixed, at -1
  relative phosphorylation: 0.674
Q fixed, at -2
  relative phosphorylation: 1.13
Q fixed, at -3
  relative phosphorylation: 0.864
Q fixed, at -4
  relative phosphorylation: 1.11
Q fixed, at -5
  relative phosphorylation: 1.08
R fixed, at +1
  relative phosphorylation: 0.302
R fixed, at +2
  relative phosphorylation: 0.74
R fixed, at +3
  relative phosphorylation: 0.619
R fixed, at +4
  relative phosphorylation: 0.856
R fixed, at +5
  relative phosphorylation: 0.926
R fixed, at -1
  relative phosphorylation: 0.219
R fixed, at -2
  relative phosphorylation: 0.535
R fixed, at -3
  relative phosphorylation: 0.523
R fixed, at -4
  relative phosphorylation: 0.641
R fixed, at -5
  relative phosphorylation: 0.716
S fixed, at +1
  relative phosphorylation: 1.1
S fixed, at +2
  relative phosphorylation: 1.01
S fixed, at +3
  relative phosphorylation: 0.892
S fixed, at +4
  relative phosphorylation: 0.97
S fixed, at +5
  relative phosphorylation: 0.965
S fixed, at -1
  relative phosphorylation: 0.587
S fixed, at -2
  relative phosphorylation: 1.1
S fixed, at -3
  relative phosphorylation: 0.915
S fixed, at -4
  relative phosphorylation: 0.758
S fixed, at -5
  relative phosphorylation: 0.895
T fixed, at +1
  relative phosphorylation: 1.23
T fixed, at +2
  relative phosphorylation: 1.02
T fixed, at +3
  relative phosphorylation: 0.907
T fixed, at +4
  relative phosphorylation: 0.932
T fixed, at +5
  relative phosphorylation: 1.1
T fixed, at -1
  relative phosphorylation: 0.779
T fixed, at -2
  relative phosphorylation: 0.832
T fixed, at -3
  relative phosphorylation: 0.885
T fixed, at -4
  relative phosphorylation: 0.651
T fixed, at -5
  relative phosphorylation: 0.725
V fixed, at +1
  relative phosphorylation: 1.47
V fixed, at +2
  relative phosphorylation: 0.978
V fixed, at +3
  relative phosphorylation: 1.4
V fixed, at +4
  relative phosphorylation: 0.874
V fixed, at +5
  relative phosphorylation: 0.89
V fixed, at -1
  relative phosphorylation: 0.935
V fixed, at -2
  relative phosphorylation: 0.857
V fixed, at -3
  relative phosphorylation: 0.703
V fixed, at -4
  relative phosphorylation: 0.811
V fixed, at -5
  relative phosphorylation: 0.772
W fixed, at +1
  relative phosphorylation: 0.951
W fixed, at +2
  relative phosphorylation: 1.56
W fixed, at +3
  relative phosphorylation: 1.1
W fixed, at +4
  relative phosphorylation: 1.14
W fixed, at +5
  relative phosphorylation: 0.961
W fixed, at -1
  relative phosphorylation: 0.44
W fixed, at -2
  relative phosphorylation: 0.771
W fixed, at -3
  relative phosphorylation: 0.948
W fixed, at -4
  relative phosphorylation: 1.19
W fixed, at -5
  relative phosphorylation: 1.14
pThr fixed, at +1
  relative phosphorylation: 3.24
pThr fixed, at +2
  relative phosphorylation: 2.33
pThr fixed, at +3
  relative phosphorylation: 0.946
pThr fixed, at +4
  relative phosphorylation: 1.54
pThr fixed, at +5
  relative phosphorylation: 1.38
pThr fixed, at -1
  relative phosphorylation: 6.21
pThr fixed, at -2
  relative phosphorylation: 3.86
pThr fixed, at -3
  relative phosphorylation: 2.93
pThr fixed, at -4
  relative phosphorylation: 2.36
pThr fixed, at -5
  relative phosphorylation: 1.85
pTyr fixed, at +1
  relative phosphorylation: 6.41
pTyr fixed, at +2
  relative phosphorylation: 3.62
pTyr fixed, at +3
  relative phosphorylation: 1.53
pTyr fixed, at +4
  relative phosphorylation: 1.73
pTyr fixed, at +5
  relative phosphorylation: 1.32
pTyr fixed, at -1
  relative phosphorylation: 4.49
pTyr fixed, at -2
  relative phosphorylation: 2.56
pTyr fixed, at -3
  relative phosphorylation: 3.83
pTyr fixed, at -4
  relative phosphorylation: 2.99
pTyr fixed, at -5
  relative phosphorylation: 2.2
